{"source": "paper PMC2885749", "molecular_target": "TolCΔ2–22 (signal sequence-less mature TolC, His-tagged) (E. coli) (UniProt P02930)", "experiment": "SDS-PAGE of unheated samples", "data": [{"substance": "TolCΔ2–22 (signal sequence-less mature TolC, His-tagged) (from UniProt P02930 23-493) (natural protein)", "values": [{"measurement": "stoichiometry N", "result": 3}]}]}
